Assay results: IntAct's records for PubMed 22665060

B1: Tight junction protein 2 (Homo sapiens), Q9UDY2-3 (parent)
chain: MEELIWEQYTVTLQKDSKRGFGIAVSGGRDNPHFENGETSIVISDVLPGGPADGLLQENDRVVMVNGTPMEDVLHSFAVQQLRKSGKVAAIVVKRPRKVQVAALQASPPLDQDDRAFEVMDEFDGRSFRSGYSERSRLNSHGGRSRSWEDSPERGRPHERARSRERDLSRDRSRGRSLERGLDQDHARTRDRSRGRSLERGLDHDFGPSRDRDRDRSRGRSIDQDYERAYHRAYDPDYERAYSPEYRRGARHDARSRGPRSRSREHPHSRSPSPEPRGRPGPIGVLLMKSRANEEYGLRLGSQIFVKEMTRTGLATKDGNLHEGDIILKINGTVTENMSLTDARKLIEKSRGKLQLVVLRDSQQTLINIPSLNDSDSEIEDISEIESNRSFSPEERRHQYSDYDYHSSSEKLKERPSSREDTPSRLSRMGATPTPFKSTGDIAGTVVPETNKEPRYQEDPPAPQPKAAPRTFLRPSPEDEAIYGPNTKMVRFKKGDSVGLRLAGGNDVGIFVAGIQEGTSAEQEGLQEGDQILKVNTQDFRGLVREDAVLYLLEIPKGEMVTILAQSRADVYRDILACGRGDSFFIRSHFECEKETPQSLAFTRGEVFRVVDTLYDGKLGNWLAVRIGNELEKGLIPNKSRAEQMASVQNAQRDNAGDRADFWRMRGQRSGVKKNLRKSREDLTAVVSVSTKFPAYERVLLREAGFKRPVVLFGPIADIAMEKLANELPDWFQTAKTEPKDAGSEKSTGVVRLNTVRQIIEQDKHALLDVTPKAVDLLNYTQWFPIVIFFNPDSRQGVKTMRQRLNPTSNKSSRKLFDQANKLKKTCAHLFTATINLNSANDSWFGSLKDTIQHQQGEAVWVSEGKMEGMDDDPEDRMSYLTAMGADYLSCDSRLISDFEDTDGEGGAYTDNELDEPAEEPLVSSITRSSEPVQHEESIRKPSPEPRAQMRRAASSDQLRDNSPPPAFKPEPPKAKTQNKEESYDFSKSYEYKSNPSAVAGNETPGASTKGYPPPVAAKPTFGRSILKPSTPIPPQEGEEVGESSEEQDNAPKSVLGKVKIFEKMDHKARLQRMQELQEAQNARIEIAQKHPDIYAVPIKTHKPDPGTPQHTSSRPPEPQKAPSRPYQDTRGSYGSDAEEEEYRQQLSEHSKRGYYGQSARYRDTEL
partner: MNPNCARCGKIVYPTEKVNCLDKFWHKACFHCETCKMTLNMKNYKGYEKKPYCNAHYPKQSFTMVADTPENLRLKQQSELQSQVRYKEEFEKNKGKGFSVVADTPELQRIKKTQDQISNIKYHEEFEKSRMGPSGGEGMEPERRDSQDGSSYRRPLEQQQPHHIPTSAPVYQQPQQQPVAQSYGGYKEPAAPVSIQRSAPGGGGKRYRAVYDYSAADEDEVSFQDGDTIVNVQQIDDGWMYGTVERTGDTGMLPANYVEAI

Variants of: B1
Settings: with lasp1_human LASP1, Q14847

Row | Variant | effect of a mutation on the interaction
1 | P1106A | decreasing interaction
2 | P1106A;P1116A | disrupting interaction strength
